# Measurements published in doi:10.1101/2025.04.23.650173 (bioRxiv, 2025).
# Where two headings read alike, the source gives them in different places.
# B1: wild type murine CXCL4 (natural protein, mouse, UniProt Q9Z126 30-105, looked up)
# chain: VTSAGPEESDGDLSCVCVKTISSGIHLKHITSLEVIKAGRHCAVPQLIATLKNGRKICLDRQAPLYKKVIKKILES
# Columns and labels:
# [1] = biological target: the molecule itself; experiment: AUC
# [2] = biological target: the molecule itself; experiment: AUC; remark: listed apart in the source
protein,measurement,setting,value
B1,stoichiometry N,[1],2
same,stoichiometry N,[2],4
